{"source": "patent US10398755", "proteins": {"B1": {"name": "MMP-9, propeptide-cleaved (APMA-processed active MMP-9) (protein)", "chain": "FQTFKGLKWDHHNITYWIQNYSEDLPRDMIDDAFARAFAVWGEVAPLTFTRVYGPEADIVIQFGVAEHGDGYPFDGKDGLLAHAFPPGAGVQGDAHFDDDELWSLGKGVVIPTYYGNSNGAPCHFPFTFEGRSYSACTTDGRNDGTPWCSTTADYDKDGKFGFCPSERLYTEHGNGEGKPCVFPFIFEGRSYSACTTKGRSDGYRWCATTANYDQDKLYGFCPTRVDATVVGGNSAGELCVFPFVFLGKQYSSCTSDGRRDGRLWCATTSNFDTDKKWGFCPDQGYSLFLVAAHEFGHALGLDHSSVPEALMYPLYSYLEGFPLNKDDIDGIQYLYGRGSKPDPRPPATTTTEPQPTAPPTMCPTIPPTAYPTVGPTVGPTGAPSPGPTSSPSPGPTGAPSPGPTAPPTAGSSEASTESLSPADNPCNVDVFDAIAEIQGALHFFKDGWYWKFLNHRGSPLQGPFLTARTWPALPATLDSAFEDPQTKRVFFFSGRQMWVYTGKTVLGPRSLDKLGLGPEVTHVSGLLPRRLGKALLFSKGRVWRFDLKSQKVDPQSVIRVDKEFSGVPWNSHDIFQYQDKAYFCHGKFFWRVSFQNEVNKVDHEVNQVDDVGYVTYDLLQCP"}}, "biological_target": "T1, mouse CLU with C-terminal (His)6 (CLU-His), recombinant secreted clusterin, Q06890", "T1 chain": "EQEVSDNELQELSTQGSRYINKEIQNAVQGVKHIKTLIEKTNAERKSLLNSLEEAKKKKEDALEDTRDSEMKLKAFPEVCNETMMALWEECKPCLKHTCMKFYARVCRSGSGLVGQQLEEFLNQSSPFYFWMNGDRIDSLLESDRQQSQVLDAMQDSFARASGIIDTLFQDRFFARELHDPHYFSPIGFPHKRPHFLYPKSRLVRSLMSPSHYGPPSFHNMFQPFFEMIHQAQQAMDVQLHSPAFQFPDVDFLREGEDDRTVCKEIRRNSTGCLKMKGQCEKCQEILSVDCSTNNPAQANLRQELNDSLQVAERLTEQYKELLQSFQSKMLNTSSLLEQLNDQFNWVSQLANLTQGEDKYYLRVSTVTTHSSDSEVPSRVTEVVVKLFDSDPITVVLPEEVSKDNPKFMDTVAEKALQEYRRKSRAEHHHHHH"}
{"protein": "B1", "values": [{"measurement": "digestion of CLU by active MMP-9 (SDS/PAGE, Coomasie staining; gelatin as known substrate)", "value": "the density of CLU protein, separated as a and 6 subunits, changed little, whereas most high molecular weight gelatin disappeared upon incubation with MMP-9, indicating that CLU is not a substrate for MMP-9 in vitro"}]}
